Two molecules from paper PMC5446181 can be followed below.

The target of assay [1] is TChz, truncated recognition fragment (middle region, MoRF) of the histone chaperone Chz1 (UniProt P40019). Description: ITC; 200 uM TBZ_(Y139W) injected into 20 uM TChz, 298 K, NANO-ITC, 1:1 isothermal binding model. On the technique in general: ITC needs no label: the signal is the heat of the interaction.
Assay [2] has as its target TBZ_(Y139W), tryptophan variant (pseudo-WT) of the H2A.Z-H2B linked fragment. Description: stopped-flow fluorescence; TChz 4, 6, 8, 12, 20 uM mixed with 2 uM TBZ_(Y139W), 0.01 M PBS, 25 C, excitation 290 nm, 320 nm cutoff filter; global numerical fit to a two-step induced-fit model.

In the case of “TBZ_(Y139W), tryptophan variant (pseudo-WT) of the H2A.Z-H2B linked fragment (domain or fragment)”, in assay [1], the Kd was found to be 330 nM, the dH was -8.14 kcal/mol and the stoichiometry N stood at 0.97.

B1: TChz, truncated recognition fragment (middle region, MoRF) of the histone chaperone Chz1 (domain or fragment)
chain: DMDDAKLDALMGNEGEEEEDDLAEIDTSNIITSGRRTRGKVIDYKKTAEELDKKEPSTGSKD
B1: in assay [2], the k1+ (first step, association to the intermediate, induced-fit model) amounted to 6.78e+06 M⁻¹ s⁻¹; the k1− (first step, dissociation of the intermediate, induced-fit model) turned out to be 53.4 s⁻¹; the k2+ as the column head prints it a second time (taken as k2−, second step reverse, induced-fit model) is 9.88 s⁻¹.

The Kd is the concentration at which binding is half-saturated. A high value points to lower affinity. What is called stoichiometry N is a count of units in the complex or per binding partner.
